Substitutions are numbered along the chain they refer to.
B1: A4-B2 (bispecific antibody)
chain: VQLQESGGGLVQAGGSLRLSCAASGSRFSINTMGWYRQAPGKQREFVATVTRGGNTNYAESVKGRFTISRDNAKNTVYLQMNSLRPEDTAVYYCHVDEVRDSSWTTSNIWGQGTQVTVSSGGGGSGGGGSGGGGSVQLQESGGGLVQAGGSLRLSCAASGSTFSINTMGWYRQAPGKQRELVATITRGGNTNYADSVKGRFTISRDNAKNTVYLQMNSLRPEDTAVYYCHVDEVRQSSWTTSNLWGQGTQVTVSS
B2: A4-C1 (VHH)
chain: VQLQESGGGLVQPGGSLRLSCAASGSGFSINTMGWYRQAPGKQRELVATVTRDGSTNYADFVKGRFTISRDNAKNTVYLQMNSLRPEDTAVYYCHLDEVRESSWTTSNLWGQGTQVTVSSGGGGSGGGGSGGGGSVQLQESGGGLVQPGGSLRLSCAASGSGFSINTMGWYRQAPGKQRELVATVTRDGSTNYADFVKGRFTISRDNAKNTVYLQMNSLRPEDTAVYYCHLDEVRESSWTTSNLWGQGTQVTVSSGGGGSGGGGSGGGGSVQLQESGGGLVQPGGSLRLSCAASGSGFSINTMGWYRQAPGKQRELVATVTRDGSTNYADFVKGRFTISRDNAKNTVYLQMNSLRPEDTAVYYCHLDEVRESSWTTSNLWGQGTQVTVSS
B3: A4-C2 (VHH)
chain: VQLQESGGGLVQPGGSLRLSCAASGSAFSINTMGWYRQAPGKQRELVASVTPGGSTNYADSVKGRFTISRDNAKNTIYLQMNSLRPEDTAVYYCHLDEVRESSWTTSNLWGQGTQVTVSSGGGGSGGGGSGGGGSVQLQESGGGLVQPGGSLRLSCAASGSAFSINTMGWYRQAPGKQRELVASVTPGGSTNYADSVKGRFTISRDNAKNTIYLQMNSLRPEDTAVYYCHLDEVRESSWTTSNLWGQGTQVTVSSGGGGSGGGGSGGGGSVQLQESGGGLVQPGGSLRLSCAASGSAFSINTMGWYRQAPGKQRELVASVTPGGSTNYADSVKGRFTISRDNAKNTIYLQMNSLRPEDTAVYYCHLDEVRESSWTTSNLWGQGTQVTVSS
B4: A4-D1 (VHH)
chain: VQLQESGGGLAQAGGSLRLSCAASGRGFSINTMGWYRQAPGKQRELVAAVTRGGTTNYADSVKGRFTISRDNAKNTVYLQMNSLRPEDTAVYYCHVDEVRQSSWTTSNLWGQGTQVTVSSGGGGSGGGGSGGGGSVQLQESGGGLAQAGGSLRLSCAASGRGFSINTMGWYRQAPGKQRELVAAVTRGGTTNYADSVKGRFTISRDNAKNTVYLQMNSLRPEDTAVYYCHVDEVRQSSWTTSNLWGQGTQVTVSSGGGGSGGGGSGGGGSVQLQESGGGLAQAGGSLRLSCAASGRGFSINTMGWYRQAPGKQRELVAAVTRGGTTNYADSVKGRFTISRDNAKNTVYLQMNSLRPEDTAVYYCHVDEVRQSSWTTSNLWGQGTQVTVSSGGGGSGGGGSGGGGSVQLQESGGGLAQAGGSLRLSCAASGRGFSINTMGWYRQAPGKQRELVAAVTRGGTTNYADSVKGRFTISRDNAKNTVYLQMNSLRPEDTAVYYCHVDEVRQSSWTTSNLWGQGTQVTVSS
B5: A4-D3 (VHH)
chain: B4 chain with A416V, A418P
B6: A4-D4 (VHH)
chain: B4 chain with A146V, A148P
B7: A4-D6 (bispecific antibody)
chain: VQLQESGGGLVQTGGSLRLSCAASGRAFSLNTMGWYRQAPGKWRELVATVTRGGSTNYAGSVKGRFTISRDNAKNTVYLQMNNLRPEDTAVYYCHVDEVRESSWTTSNLWGQGTQVTVSSGGGGSGGGGSGGGGSVQLQESGGGLVQTGGSLRLSCAASGRAFSLNTMGWYRQAPGKWRELVATVTRGGSTNYAGSVKGRFTISRDNAKNTVYLQMNNLRPEDTAVYYCHVDEVRESSWTTSNLWGQGTQVTVSSGGGGSGGGGSGGGGSVQLQESGGGLVQPGGSLRLSCAASGSIFTINSMGWYRQAPGKWRELVATVTRGGNTNYANSVKGRFTISRDNAKNTVYLQMNTLRPEDTAVYYCHLDEVRDSSWTTSNLWGQGTQVTVSSGGGGSGGGGSGGGGSVQLQESGGGLVQPGGSLRLSCAASGSIFSINSMGWYRQAPGKWRELVATVTRGGSTNYANSVKGRFTISRDNAKNTVYLQMNTLRPEDTAVYYCHLDEVRDSSWTTSNLWGQGTQVTVSS
B8: A4-D7 (bispecific antibody)
chain: VQLQESGGGLVQTGGSLRLSCAASGRAFSLNTMGWYRQAPGKWRELVATVTRGGSTNYAGSVKGRFTISRDNAKNTVYLQMNNLRPEDTAVYYCHVDEVRESSWTTSNLWGQGTQVTVSSGGGGSGGGGSGGGGSVQLQESGGGLVQPGGSLRLSCAASGSIFTINSMGWYRQAPGKWRELVATVTRGGNTNYANSVKGRFTISRDNAKNTVYLQMNTLRPEDTAVYYCHLDEVRDSSWTTSNLWGQGTQVTVSSGGGGSGGGGSGGGGSVQLQESGGGLVQPGGSLRLSCAASGSIFSINSMGWYRQAPGKWRELVATVTRGGSTNYANSVKGRFTISRDNAKNTVYLQMNTLRPEDTAVYYCHLDEVRDSSWTTSNLWGQGTQVTVSSGGGGSGGGGSGGGGSVQLQESGGGLVQTGGSLRLSCAASGRAFSLNTMGWYRQAPGKWRELVATVTRGGSTNYAGSVKGRFTISRDNAKNTVYLQMNNLRPEDTAVYYCHVDEVRESSWTTSNLWGQGTQVTVSS
B9: A4-D8 (bispecific antibody)
chain: VQLQESGGGLVQPGGSLRLSCAASGSRFSLNTMGWYRQAPGKQRELVATVTRGGSTNYADSVKGRFTISRDNAKNTVYLQMNSLRPEDTAVYYCHVDELRESGWTTSNLWGQGTQVTVSSGGGGSGGGGSGGGGSVQLQESGGGLVQPGGSLRLSCAASGSRFSLNTMGWYRQAPGKQRELVATVTRGGSTNYADFVKGRFTISRDNAKNTVYLQMNSLRPEDTAVYYCHVDELRESGWTTSNLWGQGTQVTVSSGGGGSGGGGSGGGGSVQLQESGGGLVHSGGSLRLSCAASGSMFSLNTMGWYRQAPGKQRELVATITRGGGTSYADSVKGRFTISRDNAKNTVYLQMNSLRPEDTAVYYCHVDELRQSSWTTSNLWGQGTQVTVSSGGGGSGGGGSGGGGSVQLQESGGGLVQPGGSLRLSCAASGSRFSLNTMGWYRQAPGKQRELVATVTRGGSTNYADFVKGRFTISRDNAKNTVYLQMNSLRPEDTAVYYCHVDELRESGWTTSNLWGQGTQVTVSS
B10: A4-D9 (bispecific antibody)
chain: VQLQESGGGLVHSGGSLRLSCAASGSMFSLNTMGWYRQAPGKQRELVATITRGGGTSYADSVKGRFTISRDNAKNTVYLQMNSLRPEDTAVYYCHVDELRQSSWTTSNLWGQGTQVTVSSGGGGSGGGGSGGGGSVQLQESGGGLVQPGGSLRLSCAASGSRFSLNTMGWYRQAPGKQRELVATVTRGGSTNYADFVKGRFTISRDNAKNTVYLQMNSLRPEDTAVYYCHVDELRESGWTTSNLWGQGTQVTVSSGGGGSGGGGSGGGGSVQLQESGGGLVQPGGSLRLSCAASGSRFSLNTMGWYRQAPGKQRELVATVTRGGSTNYADFVKGRFTISRDNAKNTVYLQMNSLRPEDTAVYYCHVDELRESGWTTSNLWGQGTQVTVSSGGGGSGGGGSGGGGSVQLQESGGGLVQTGGSLRLSCAASGRAFSLNTMGWYRQAPGKWRELVATVTRGGSTNYAGSVKGRFTISRDNAKNTVYLQMNNLRPEDTAVYYCHVDEVRESSWTTSNLWGQGTQVTVSS
B11: A4-D11 (other)
chain: VQLQESGGGLVQPGGSLRLSCAASGRGFSINTMGWYRQAPGKQRELVAAVTRGGTTNYADSVKGRFTISRDNAKNTVYLQMNSLRPEDTAVYYCHVDEVRQSSWTTSNLWGQGTQVTVSSGGGGSGGGGSGGGGSVQLQESGGGLVQPGGSLRLSCAASGSIFSINTMGWYRQAPGKQRELVAAVTRGGSTNYADSVKGRFTISRDNAKNTVYLQMNSLRPEDTAVYYCHVDEVRQSSWTTSNLWGQGTQVTVSSGGGGSGGGGSGGGGSVQLQESGGGLVQPGGSLRLSCAASGSIFIINTMGWYRRAPGKQRELVAAVTRGGSTNYADSVKGRFTISRDNAKNTVYLQMNSLRPEDTAVYYCHVDEVRQSSWTTSNLWGQGTQVTVSSGGGGSGGGGSGGGGSVQLQESGGGLVQPGGSLRLSCAASGSSFVINTMGWYRQAPGKQRELVAAVTRGGSTNYADSVKGRFTISRDNAKNTVYLQMNSLRPEDTAVYYCHVDEVRQSSWTTSNLWGQGTQVTVSS

How the values were obtained:
Experiment in all cases: SPR, AAV amine-coupled to CM5 chip
AAV8 = target: T1, AAV8 (adeno-associated virus 8, Assembled 60-mer capsid of VP1/VP2/VP3 (nested products of one cap gene), amine-coupled to a CM5 chip; the letters give one VP1 subunit only.)
T1 construct: also called adeno-associated virus serotype 8
T1 chain: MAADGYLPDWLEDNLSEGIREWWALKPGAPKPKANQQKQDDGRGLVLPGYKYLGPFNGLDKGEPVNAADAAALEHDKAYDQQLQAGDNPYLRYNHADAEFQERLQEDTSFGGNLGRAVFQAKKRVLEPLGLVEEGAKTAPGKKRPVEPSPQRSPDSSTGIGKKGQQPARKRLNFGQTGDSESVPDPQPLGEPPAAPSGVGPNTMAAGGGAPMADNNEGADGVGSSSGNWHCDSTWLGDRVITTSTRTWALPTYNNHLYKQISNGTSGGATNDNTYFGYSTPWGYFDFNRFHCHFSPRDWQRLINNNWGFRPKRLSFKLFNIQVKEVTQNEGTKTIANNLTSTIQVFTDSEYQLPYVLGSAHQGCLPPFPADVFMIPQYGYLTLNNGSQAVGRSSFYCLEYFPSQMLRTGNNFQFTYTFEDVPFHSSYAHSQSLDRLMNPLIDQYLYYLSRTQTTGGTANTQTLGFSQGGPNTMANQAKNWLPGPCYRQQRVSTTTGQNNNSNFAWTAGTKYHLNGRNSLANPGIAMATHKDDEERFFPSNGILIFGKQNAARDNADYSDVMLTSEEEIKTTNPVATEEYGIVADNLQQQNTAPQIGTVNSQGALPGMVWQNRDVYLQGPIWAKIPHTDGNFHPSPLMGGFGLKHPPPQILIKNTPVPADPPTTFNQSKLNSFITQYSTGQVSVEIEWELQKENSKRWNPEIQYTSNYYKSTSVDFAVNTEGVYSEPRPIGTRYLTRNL

AAV5 = target: T2, AAV5 (adeno-associated virus 5, Assembled 60-mer capsid of VP1/VP2/VP3 (nested products of one cap gene), amine-coupled to a CM5 chip; the letters give one VP1 subunit only.)
T2 construct: also called adeno-associated virus serotype 5

AAV9 = target: T3, AAV9 (adeno-associated virus 9, Assembled 60-mer capsid of VP1/VP2/VP3 (nested products of one cap gene), amine-coupled to a CM5 chip; the letters give one VP1 subunit only.)
T3 construct: also called adeno-associated virus serotype 9

Binder | Kd (AAV8) | koff (AAV8) | kon (AAV8) | Kd (AAV5) | koff (AAV5) | kon (AAV5) | Kd (AAV9) | koff (AAV9) | kon (AAV9)
B1 | 1.02 nM | 0.00014 s⁻¹ | 138000 M⁻¹ s⁻¹ | 7.38 nM | 0.00117 s⁻¹ | 159000 M⁻¹ s⁻¹ | 8.35 nM | 0.0008 s⁻¹ | 95800 M⁻¹ s⁻¹
B2 | 9.2 nM | 0.00164 s⁻¹ | 178000 M⁻¹ s⁻¹ | 13.2 nM | 0.00138 s⁻¹ | 104000 M⁻¹ s⁻¹ | ≤ 1.03 nM | ≤ 1e-05 s⁻¹ | 9690 M⁻¹ s⁻¹
B3 | 0.359 nM | 5e-05 s⁻¹ | 139000 M⁻¹ s⁻¹ | 0.691 nM | 0.000134 s⁻¹ | 194000 M⁻¹ s⁻¹ | 0.486 nM | 0.000125 s⁻¹ | 257000 M⁻¹ s⁻¹
B4 |  |  |  | 0.0576 nM | 2.2e-06 s⁻¹ | 38200 M⁻¹ s⁻¹ |  |  | 
B5 |  |  |  | 0.209 nM | 3.6e-06 s⁻¹ | 17300 M⁻¹ s⁻¹ |  |  | 
B6 |  |  |  | 0.657 nM | 1.73e-05 s⁻¹ | 26300 M⁻¹ s⁻¹ |  |  | 
B7 | 1.02 nM | 1.63e-05 s⁻¹ | 16000 M⁻¹ s⁻¹ |  |  |  |  |  | 
B8 | 1.41 nM | 1.79e-05 s⁻¹ | 12700 M⁻¹ s⁻¹ |  |  |  |  |  | 
B9 | 0.228 nM | 1.1e-05 s⁻¹ | 48200 M⁻¹ s⁻¹ |  |  |  |  |  | 
B10 | 0.318 nM | 9.9e-06 s⁻¹ | 31100 M⁻¹ s⁻¹ |  |  |  |  |  | 
B11 | 0.319 nM | 1.5e-05 s⁻¹ | 47000 M⁻¹ s⁻¹ |  |  |  |  |  | 
